Assay: yeast display, Sf9 membrane polyspecificity reagent, FACS + sequencing; frameworks hold sequencing errors
How it was run: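 A synthetic nanobody library was expressed on Saccharomyces cerevisiae BJ5465 by galactose induction for 36–48 hours. The library was stained for 1 hour at 4 °C with 10% biotinylated, detergent-solubilized Sf9 membrane reagent and enriched with streptavidin microbeads before FACS. Low and high (top ~1%) gates were set on anti-HA fluorescence for expression and streptavidin fluorescence for reagent binding, and each polyreactivity label reflects the gate of origin.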

Row | Sequence | polyreactivity (PSR sort gate)
1 | QVQLVESGGGLVQAGGSLRLSCAASGFTFHNNVMGWYRQAPGKERELVATISKSGGSTYYADYVKGRFTISRDNAKNTVYLQMKSLKPEDTAVYYCARRYRDYGRYGYWGQGTQVTVSS | high polyreactivity
2 | QVQLVESGGGLDQAGGSLRLSCAASGRTFGVYAMGWYRQAPGKERELVAAITGRGGSTYYADSVKGRFTISRDNAKNTVYLQMNSLKPEDTAVYYCNAELYEYQSWDDYWGQGTQVTVSS | low polyreactivity
3 | QVQLVESGGGLVQAGGSLRLSCAASGFIISPYAMGWYRQAPGKERELVAAISWSGVSTYYADSVKGRFTISRDNAKNTVYLQMNSLKPEDTAVYYCATYRTVYYWGQGTQVTVSS | high polyreactivity
4 | QIQLVESGGGLDQAGGSLRLSCAASGSNFVWNAMGWSRQAPGKERELVAAISYTDGSTYYADSVKGRFTISRDNAKNTVYLQMNSLKREDTAVYYCAAAITPSYTGSQYDYWGQGTQVTVSS | low polyreactivity
5 | QVQLVESGGGLVQAGGSLRLSCAASGCIFEIYAMGWYRQAPGKERELVAAITDSGGSTYYADSVKARFTISRDNANNTVYLQMNSLKPEDTAVYYCAAVGNSYETLLFYYWGQGTQVTVSS | low polyreactivity
6 | QVQLVESGGGLVQAGGSLRLSCAASGLILGSYAMGWYRQAPGKERELVAGISWSGGDTYYADSVKGRFTISRDNAKNTVYLQMNSLKPEDTAVYYCNTGGTFLDWVRRPFGFGYWGQGTQVTVSS | low polyreactivity
7 | QVQLVESGGGLVQAGGSLRLSCAASGLIFVQYVMGWYRQAPGKERELVAAITDDGNTYYADSVKGRFTISRDNAKNTVYLQMKSLKPEDTAVYYCNAVLRSYDFWPGYGYWGQGTQVTVSS | low polyreactivity
8 | QVQLVESGGGLVQAGGSLRISCAASGFTFHSYAMGWYIQAPGKERELVDAISYSGGSTYYADSVKGRFTISRDNAKNTVYLQMNSLKPEDSAVYYCAVLRYIYGYANDYWGQGTQLTVSS | low polyreactivity
9 | QVQLVESGGGLVQAGGSLRLSCAASGRILRHNAKGWYRQAPGKERELVAAITNGGSTYYADSVKGRFTISRDNAKNTVYLQMNCLKPEDTAVYYCAARTRLAQYSRGRYRYDYWGQGTQVTLSS | high polyreactivity
10 | QVQLVESGGCLVQAGGSLRLSCAASGRTFYFYAMGWYRQAPGKERELVASISWSGGRTNYADSVKGRFTSSRDNAKNTVYLQMNSLKPEDTAVHYCAARYVERHTDYYYWGQGTQVTVSS | low polyreactivity
11 | QVQLHESGGGLVQAGGSLRLSCAASGTISVTYNMAWYRQAPGKERECVAGNSTGATTNYADSVKGRFTIRRDNAKNTVYLQMNSLKPEDTAVYYCAAHIYRQDHFYYWGQGTQVTVSS | low polyreactivity
12 | QVQLVESGGGLVQAGGSLRLSCAASGFTFYRNTMGWYRQAPGKERELVAAISTRDGSTYYADSVKGRFTISRDNAKYTVYLPMNSLKPEDTAVYYCAVLTYRGRFEYWGQGTQVTVSS | high polyreactivity
13 | QVQLVESGGGLVQAGGSLRLSCAASGIIFPGNAMGWYRQAPGKERELVAAISSGGNTKYADSVKGRFTISRDNAKNTGYLQMNSLKPEDTAVYYCAADGASRALYDYWGQGTQVTVSS | high polyreactivity
14 | QVQLVESGGGLVQAGGSLRLSCAASGSTFAPYAMGWYRHAPGKERELVASIRSTGSTNYADSVKGRFTISRDNAKNTVYLQMNSLKPEDTAVYYCAARYRRYQYRVKVDYYYWGQGTQVTVSS | high polyreactivity
15 | QVQLVESGGGLVQAGGSLRLSCAASGSTFVRNGMGWYRKAPGKERELVAAITRGGSTYYADSVKGRFTISRDNAKNTVYLQMNSLKPEDTAVYYSAKRYRGGYYYPYNYWGLGTQVTVSS | high polyreactivity
16 | QVQLVESGGGLVQAGGSLRLSCAASGSIFEVNAMGLYRQAPGKERELVAAISCSGGSTYYADSVKGRFTISRDNAKNTVYLQMNSLKPEDTAVYYCAADWRQGLWYGYYYWGQGTQVTVSS | low polyreactivity
17 | QVHLVESGGGLVQAGGSLRLSCAASGNTFDINAMGWYRQAPGKERELVAAISFSGGDTYYADSVKGRFTISRDNAKNTVYLQMNILKPEHTAVYYCAAEVPDTDAYGYWGQGTQVTVSS | low polyreactivity
18 | QVQLVESGGALVQAGGSLRLSCAASGRIIYKNAMRWYRQAPGKETELVATITYSDGTTYYADSVKGRFTISRDNAKNTVYLQMNSLKPEDTAVYYCAAQTDSVESDYWGQGTQVTVSS | low polyreactivity
19 | QVQLVESGGGLVQAGGSLRLSCAASGSTFRANTMGWYRQAPGKERELVAAITSGGSTYYADSVKGRFTISRDNAKNTVYLQMNSLKPEDTAVYYCAADYTGDWADGPHSLREYDYWGQGTQVTVSS | low polyreactivity
20 | QVQIVESGGGLVQAGGSLRLSCAASGLIFKYYAMGWYRQAPGKERELVATITRGGGSTYYADSVKGRFTISRDNAKNTVYLQMNSLKPEDTAVYYCAADYWYVYPRYNPGDYWGQGTQVTVSS | high polyreactivity
21 | QVQLVESGGGLVQAGGSLRLSCAASGSTFPRYAMGWYRQAPGKERELVASITSDGGSTYYADSVKGRFTISRDNAKNTVYLQMNSLKPEDTAFYYCNKVPYRGYRRYGYWGQGTQVTVSS | high polyreactivity
22 | QVQLVESGGGLVQAGGSLRLSCAASGFTFSYYAMGWSRPEPGKERELVAAISSSASRTYYAESVKGRFTISRDNAKNTVYFQMNSLKPEDTAVYYCAARYSESRTRHLDYWGQGTQVTVSS | high polyreactivity

Row | Sequence | polyreactivity (PSR sort gate)
23 | QVQLVESGGGLVQAGGSLRLSCAASGSIFVYYAMGWYRQAPGKERELVASISRGGTSTYYADSVKGRFTISRDNAKNTVYLQMNSLKPEDTAVYYCAAQPYRTGTYDYWGQGTQVTVSS | low polyreactivity
24 | QVQLVESGGGIVQAGGSLRLSCAASGIIFLDYVMVWYRQAPGKERELVAAINSGGSTYYADSVKGRFTISRDNAKNTVYLQMNSLIPEDTAVYYCAADDYYKFDYWGQGTQVTLSS | low polyreactivity
25 | QVQLVESGGGLVQAGGSLRLSCAASGRTFVVYAMGWYRQAPGKERELVAAISWSGGLTYYADSVKGRFTISRDNAKNTVYLQLNSVKPEDTAVYYCAAEVYLYKYVYYYWGQGTQVTVSS | high polyreactivity
26 | QVQLVDSGGGLVQAGGSLRLSCAASGRTFGVYAIGWYRQAPGKERELVAAITSGGSTNYADSVKGLLTISRDNANNTVYLQMNSLKPEDTAVYYCAARYKAYWQLYDYWGQGTQVTVSS | high polyreactivity
27 | QVQLVESGGGLVQAGGSLRLSCAASGRTSVLYAMGWYRQAPGKERELVAAISRDGSTNYADSVKGRFTISRDNAKNTVYLQMNSLKPEDTAVYYCAAEVRGSYYLTGYDYWGQGTQVTVSS | high polyreactivity
28 | QVQLQESGGGLLQAGGSLRLSCAASGSISQYIFMGWYRQAPGKEREFVAGIGYGGTTNYADSVTGRFTISRDNAKNTVYLQMNSLKPEDTAMYYCSAREATEFYLYYWGQGTQVTVSS | low polyreactivity
29 | QVQLVESGGGLVQAGGSLRLSCAASGRTFAQYTMGWYRQAPGKERELVAAISYRGSSTYYADSVKGRFTISRDNAKNTVYLQMNSLKPEDTAVYYCAVVYSIYTGGYDYWGQGTQVTVSS | high polyreactivity
30 | QVQLVESGGGLVQAGGSLRLSCAASGITFGRDAMGWYRQARGKERELVAAISRGSGSTYSADSVKGRFTISRDNAKNTVYLQMHSLKPEDTAVYYCGKVVRVGMGYWGQGTQVTVSS | high polyreactivity
31 | QVHLVESGGGLVQAGGSLRLSCAASGRIFDDYAMGWYRQAPGKERELVAAISWSGGSTYYADSVKVRFTISRDNAKNTVYLQRNSLKPEDTAVYYCAAPYHYYKRIGYDYWGQGTQVTVSS | low polyreactivity
32 | QVQLVESGGVLVQAGGSLRLSCAASGRIFYNYGMGWYIQAPGKERELVARITTGGRTNYADSVKGRFTISRDNAKNTVYLQMNSLKPEDTAVYYCNADGYHSRWYYYNYDYWGQGTQVTVSS | low polyreactivity
33 | QVQLVESGGGLVQAGGSLRLSCAASGRTLWWYAMAWYRQAPGKERELVAAIDYSDGNTYYADSVKGRFTISRDNAKNTVYLQMNSLKPEDTAVYYCAAEGYYNYGSYYWGQGTQVTVSS | high polyreactivity
34 | QLQLVESGGGLVQAGGSRRLSCAASGSTFGRYAMGWYRQAPGKERELVAAISRRGTSTYYADSVKGRFTISRDNAKNTVYIQMNSLKPEDTAVYYSNAVTSSFYNRDSDYWGQGTQVTVSS | high polyreactivity
35 | QVQLVESGGGLVQAGGSLRLSCAASGRIFYPNAMGWYRPAPGKVRELVAGISRSGGSTYYADSVKGRFTLSRDNAKNTVYLQKNSLKPEDTAVYYCAARYYASDRHFRGDYWGQGTQVTVSS | low polyreactivity
36 | QVQLVESGGGLVQAGGSLRLSCAASGSIFDYYAMGWYRQAPGKERELVASINSSGTGTFYADSVKGRFTISRDNAKNTVYLQMNSLKPEDTAVYSCATRQAVGYSSGRGYGYWGQGTQVTVSS | low polyreactivity
37 | QVQLVDSGGGLVQAGGSLRLSFAASGRIFAGYAMGWYRQAPGKERELVASIRYSGGSTYADSVKGRFTISRDNAKKTVYLQMNSLKPEDTAVYYSADGVQSVYNGEPGIILEFDYWGQGTQVTVSS | low polyreactivity
38 | QVQLVESGGGLVQAGGSLRLICAASGLTFVTYAMGWYRQAPGKERELVAAITWSVGGTTYYADSVKGRFTISRDNAKNTVYLQMNSLKPEDTAVYYCAAESYSYYYDYYYWGQGTQVTVSS | high polyreactivity
39 | QVQLVESGGGLVQAGGSLRLSCAASGRIFVTNAMGWYRQAPGKEREMVAAITRRGGRTYYADSVKGRFTISRDNAKNTVYLQMHSLKREDTAVYYCAAERYPEAGSPYGTAEMDYWGQGTQVTVSS | high polyreactivity
40 | QVQLVESGGGLVQAGGSLRLSCAASGRTFGIKAMGWYRQAHGKERELVAVISFGDGGTYYADSVKGRFTISRDNAKNTVYLQMNSLKPEDTAVYYCATDYQSTSVWGGHFVINPYDYWGQGTQVTLSS | low polyreactivity
41 | QVQLVDSGGGLVQAGGSLRLSCAASGRTLSFYGMGWYRQAPGKERELVAAISSSGSRTYYADSVKGRFTISRDNAKNTVYLQMNSLKPEDTAVYYCNALRIYHHYEYDYWGQGTQVTVSS | high polyreactivity
42 | QVQLVESGGGLVQAGGSLRLSCAASGSIFNRYAMGWYRQAPGKERQFVAAITRRGGNTYYADSVKGRFTISRDNAKNTVYLQMNSLKREDTAVYYCAAPFYYPAGLLYYENNYWGQGTQVTVSS | high polyreactivity
43 | QVQLVESGGGLVQAGGSLRLSCAASGSTFVYYAMGWYRQAPGKERELVADISWSGGDTYYADSVKGRFTISRDNAKNTVYLQMNSLKPEDTAVYYCAAEWSTPSYVGFADGFEYWGQGTQVTVSS | low polyreactivity

From the nanobody polyreactivity screen of Harvey et al. (2022)
